B1: BBSome complex member BBS1 (Homo sapiens), Q8NFJ9 (parent)
chain: MAAASSSDSDACGAESNEANSKWLDAHYDPMANIHTFSACLALADLHGDGEYKLVVGDLGPGGQQPRLKVLKGPLVMTESPLPALPAAAATFLMEQHEPRTPALALASGPCVYVYKNLRPYFKFSLPQLPPNPLEQDLWNQAKEDRIDPLTLKEMLESIRETAEEPLSIQSLRFLQLELSEMEAFVNQHKSNSIKRQTVITTMTTLKKNLADEDAVSCLVLGTENKELLVLDPEAFTILAKMSLPSVPVFLEVSGQFDVEFRLAAACRNGNIYILRRDSKHPKYCIELSAQPVGLIRVHKVLVVGSTQDSLHGFTHKGKKLWTVQMPAAILTMNLLEQHSRGLQAVMAGLANGEVRIYRDKALLNVIHTPDAVTSLCFGRYGREDNTLIMTTRGGGLIIKILKRTAVFVEGGSEVGPPPAQAMKLNVPRKTRLYVDQTLREREAGTAMHRAFQTDLYLLRLRAARAYLQALESSLSPLSTTAREPLKLHAVVQGLGPTFKLTLHLQNTSTTRPVLGLLVCFLYNEALYSLPRAFFKVPLLVPGLNYPLETFVESLSNKGISDIIKVLVLREGQSAPLLSAHVNMPGSEGLAAA
partner: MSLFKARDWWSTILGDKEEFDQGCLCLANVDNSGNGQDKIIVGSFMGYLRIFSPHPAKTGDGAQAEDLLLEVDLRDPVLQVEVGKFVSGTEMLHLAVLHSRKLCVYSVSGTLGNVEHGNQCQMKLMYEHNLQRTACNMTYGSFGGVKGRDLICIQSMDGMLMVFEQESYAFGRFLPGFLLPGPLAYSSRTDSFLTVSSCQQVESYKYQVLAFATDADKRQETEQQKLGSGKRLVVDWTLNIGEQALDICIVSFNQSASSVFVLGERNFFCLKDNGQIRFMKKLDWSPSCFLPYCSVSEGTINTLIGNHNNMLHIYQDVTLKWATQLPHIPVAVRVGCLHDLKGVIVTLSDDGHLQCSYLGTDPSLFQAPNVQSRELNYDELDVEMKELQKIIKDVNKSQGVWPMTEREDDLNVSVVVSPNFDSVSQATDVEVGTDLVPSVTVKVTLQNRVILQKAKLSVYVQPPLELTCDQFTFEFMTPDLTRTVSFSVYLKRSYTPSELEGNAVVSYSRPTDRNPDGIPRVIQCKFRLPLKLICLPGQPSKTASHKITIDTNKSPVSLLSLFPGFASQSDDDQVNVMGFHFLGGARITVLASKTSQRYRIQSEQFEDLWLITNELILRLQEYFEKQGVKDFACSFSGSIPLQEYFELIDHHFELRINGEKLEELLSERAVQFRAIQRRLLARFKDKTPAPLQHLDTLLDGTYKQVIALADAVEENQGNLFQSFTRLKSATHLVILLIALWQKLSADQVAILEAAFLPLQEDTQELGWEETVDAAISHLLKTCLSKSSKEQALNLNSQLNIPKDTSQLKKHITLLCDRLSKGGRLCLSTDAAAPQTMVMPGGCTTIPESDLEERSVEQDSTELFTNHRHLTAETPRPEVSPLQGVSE

Variants of: B1
Conditions: with pthb1_human BBS9, Q3SYG4

| Variant | effect of a mutation on the interaction |
| --- | --- |
| MAAASSSDSDACGAESNEANSKWLDAHYDPMANIHTFSACLALADLHGDGEYKLVVGDLGPGGQQPRLKVLKGPLVMTESPLPALPAAAATFLMEQHEPRTPALALASGPCVYVYKNLRPYFKFSLPQLPPNPLEQDLWNQAKEDRIDPLTLKEMLESIRETAEEPLSIQSLRFLQLELSEMEAFVNQHKSNSIKRQTVITTMTTLKKNLADEDAVSCLVLGTENKELLVLDPEAFTILAKMSLPSVPVFLEVSGQFDVEFRLAAACRNGNIYILRRDSKHPKYCIELSAQPVGLIRVHKVLVVGSTQDSLHGFTHKGKKLWTVQMPAAILTMNLLEQHSRGLQAVMAGLANGEVRIYRDKALLNVIHTPDAVTSLCFGRYGREDNTLIMTTRGGGLIIKILKRTAVFVEGGSEVGPPPAQAMKLNVPRKTRLYVDQTLREREAGTAMHRAFQTDLYLLRLRAARAYLQALESSLSPLSTTAREPLKLHAVVQGLGPTFKLTLHLQNTSTTRPVLGKLVCFLYNEALYSLPRAFFKVPLLVPGLNYPLETFVESLSNKGISDIIKVLVLREGQSAPLLSAHVNMPGSEGLAAA [L517K] | disrupting interaction strength |
| MAAASSSDSDACGAESNEANSKWLDAHYDPMANIHTFSACLALADLHGDGEYKLVVGDLGPGGQQPRLKVLKGPLVMTESPLPALPAAAATFLMEQHEPRTPALALASGPCVYVYKNLRPYFKFSLPQLPPNPLEQDLWNQAKEDRIDPLTLKEMLESIRETAEEPLSIQSLRFLQLELSEMEAFVNQHKSNSIKRQTVITTMTTLKKNLADEDAVSCLVLGTENKELLVLDPEAFTILAKMSLPSVPVFLEVSGQFDVEFRLAAACRNGNIYILRRDSKHPKYCIELSAQPVGLIRVHKVLVVGSTQDSLHGFTHKGKKLWTVQMPAAILTMNLLEQHSRGLQAVMAGLANGEVRIYRDKALLNVIHTPDAVTSLCFGRYGREDNTLIMTTRGGGLIIKILKRTAVFVEGGSEVGPPPAQAMKLNVPRKTRLYVDQTLREREAGTAMHRAFQTDLYLLRLRAARAYLQALESSLSPLSTTAREPLKLHAVVQGLGPTFKLTLHLQNTSTTRPVLGELVCFLYNEALYSLPRAFFKVPLLVPGLNYPLETFVESLSNKGISDIIKVLVLREGQSAPLLSAHVNMPGSEGLAAA [L517E] | disrupting interaction strength |
| MAAASSSDSDACGAESNEANSKWLDAHYDPMANIHTFSACLALADLHGDGEYKLVVGDLGPGGQQPRLKVLKGPLVMTESPLPALPAAAATFLMEQHEPRTPALALASGPCVYVYKNLRPYFKFSLPQLPPNPLEQDLWNQAKEDRIDPLTLKEMLESIRETAEEPLSIQSLRFLQLELSEMEAFVNQHKSNSIKRQTVITTMTTLKKNLADEDAVSCLVLGTENKELLVLDPEAFTILAKMSLPSVPVFLEVSGQFDVEFRLAAACRNGNIYILRRDSKHPKYCIELSAQPVGLIRVHKVLVVGSTQDSLHGFTHKGKKLWTVQMPAAILTMNLLEQHSRGLQAVMAGLANGEVRIYRDKALLNVIHTPDAVTSLCFGRYGREDNTLIMTTRGGGLIIKILKRTAVFVEGGSEVGPPPAQAMKLNVPRKTRLYVDQTLREREAGTAMHRAFQTDLYLLRLRAARAYLQALESSLSPLSTTAREPLKLHAVVQGLGPTFKLTLHLQNTSTTRPVLGALVCFLYNEALYSLPRAFFKVPLLVPGLNYPLETFVESLSNKGISDIIKVLVLREGQSAPLLSAHVNMPGSEGLAAA [L517A] | with no effect |
| MAAASSSDSDACGAESNEANSKWLDAHYDPMANIHTFSACLALADLHGDGEYKLVVGDLGPGGQQPRLKVLKGPLVMTESPLPALPAAAATFLMEQHEPRTPALALASGPCVYVYKNLRPYFKFSLPQLPPNPLEQDLWNQAKEDRIDPLTLKEMLESIRETAEEPLSIQSLRFLQLELSEMEAFVNQHKSNSIKRQTVITTMTTLKKNLADEDAVSCLVLGTENKELLVLDPEAFTILAKMSLPSVPVFLEVSGQFDVEFRLAAACRNGNIYILRRDSKHPKYCIELSAQPVGLIRVHKVLVVGSTQDSLHGFTHKGKKLWTVQMPAAILTMNLLEQHSRGLQAVMAGLANGEVRIYRDKALLNVIHTPDAVTSLCFGRYGREDNTLIMTTRGGGLIIKILKRTAVFVEGGSEVGPPPAQAMKLNVPRKTRLYVDQTLREREAGTAMHRAFQTDLYLLRLRAARAYLQALESSLSPLSTTAREPLKLHAVVQGLGPTFKLTLHLQNTSTTRPVLGLLKCFLYNEALYSLPRAFFKVPLLVPGLNYPLETFVESLSNKGISDIIKVLVLREGQSAPLLSAHVNMPGSEGLAAA [V519K] | disrupting interaction strength |
| MAAASSSDSDACGAESNEANSKWLDAHYDPMANIHTFSACLALADLHGDGEYKLVVGDLGPGGQQPRLKVLKGPLVMTESPLPALPAAAATFLMEQHEPRTPALALASGPCVYVYKNLRPYFKFSLPQLPPNPLEQDLWNQAKEDRIDPLTLKEMLESIRETAEEPLSIQSLRFLQLELSEMEAFVNQHKSNSIKRQTVITTMTTLKKNLADEDAVSCLVLGTENKELLVLDPEAFTILAKMSLPSVPVFLEVSGQFDVEFRLAAACRNGNIYILRRDSKHPKYCIELSAQPVGLIRVHKVLVVGSTQDSLHGFTHKGKKLWTVQMPAAILTMNLLEQHSRGLQAVMAGLANGEVRIYRDKALLNVIHTPDAVTSLCFGRYGREDNTLIMTTRGGGLIIKILKRTAVFVEGGSEVGPPPAQAMKLNVPRKTRLYVDQTLREREAGTAMHRAFQTDLYLLRLRAARAYLQALESSLSPLSTTAREPLKLHAVVQGLGPTFKLTLHLQNTSTTRPVLGLLACFLYNEALYSLPRAFFKVPLLVPGLNYPLETFVESLSNKGISDIIKVLVLREGQSAPLLSAHVNMPGSEGLAAA [V519A] | with no effect |
